Legend:
[1] = target: HLA-A*01:01/hβ2m complex (empty, peptide-free or peptide-receptive) (human); experiment: NMR titration
[2] = target: HLA-A*01:01/hβ2m complex (empty, peptide-free or peptide-receptive) (human); experiment: differential scanning fluorimetry
[3] = target: HLA-A*01:01/hβ2m complex (empty, peptide-free or peptide-receptive) (human); experiment: fluorescence polarisation

half-life of peptide association (t1/2) [1]: < 3.7 h
reduction in the population of empty HLA-A*01:01 after 0.5 h with peptide [2]: 50%
IC50 [3]: 260 nM
Binder: ILDTAGKEEY [NRAS_(55-64) Q61K peptide (…)]

— publication PMC10713829
